Laboratory results from patent US20240376190A1 (Chugai, published 2024).

How the values were obtained:
[1] = target: T1, FLAG-tagged human latent TGF-beta 1 (human, UniProt P01137 34-390); assay: SPR (BIACORE), antibody captured on anti-human Fc, antigen as analyte, pH 7.4
T1 construct: Co-expressed with human furin, purified on anti-FLAG resin and by gel filtration; also called human latent TGF-beta 1 (SLC); hSLC

[2] = target: T2, FLAG-tagged mouse latent TGF-beta 1 (mouse, UniProt P04202 34-390); assay: as above
T2 construct: Co-expressed with human furin; also called mouse latent TGF-beta 1 (SLC); mSLC

[3] = target: T1, FLAG-tagged human latent TGF-beta 1; assay: SPR (BIACORE 8K), antibody captured on anti-human Fc, antigen as analyte, pH 5.8
[4] = target: T2, FLAG-tagged mouse latent TGF-beta 1; assay: as above
[5] = target: T1, FLAG-tagged human latent TGF-beta 1; assay: SPR (BIACORE 8K), antibody captured on anti-human Fc, antigen as analyte, pH 7.4
Procedure: (§1) A mouse anti-human Fc (GE Healthcare) was immobilized onto all flow cells of a CM5 sensor chip using amine coupling kit (GE Healthcare). Antibodies were captured onto the anti-human Fc sensor surfaces to around 20RU capture level, then recombinant latent TGF-beta 1 of human, cyno, and mouse was injected over the flow cell. All antibodies and analytes were prepared in ACES pH 7.4 containing 20 mM ACES, 150 mM NaCl, 0.05% Tween 20, 0.005% NaN₃. Sensor surface was regenerated each cycle with 3M MgCl₂.

[6] = target: T2, FLAG-tagged mouse latent TGF-beta 1; assay: as above
Procedure: as §1

[7] = target: T3, Cyno latent TGF-beta 1 (Cys at the 30th position substituted with Ser (C33S mutation)); assay: SPR (BIACORE 8K), antibody captured on anti-human Fc, antigen as analyte, pH 5.8
T3 construct: The first reading lists it only inside the group m5; also called FLAG-tagged cynomolgus monkey latent TGF-beta 1; monkey latent TGF-beta 1 (SLC)

[8] = target: T3, Cyno latent TGF-beta 1; assay: SPR (BIACORE 8K), antibody captured on anti-human Fc, antigen as analyte, pH 7.4
Procedure: as §1

[9] = target: T1, FLAG-tagged human latent TGF-beta 1; assay: SPR (BIACORE 8K), ratio calculated from FIGS. 5 and 6
[10] = target: T3, Cyno latent TGF-beta 1; assay: as above
[11] = target: T2, FLAG-tagged mouse latent TGF-beta 1; assay: as above

T3 sequence (latent TGF-beta 1 (LAP and mature TGF-beta 1), as listed by the source): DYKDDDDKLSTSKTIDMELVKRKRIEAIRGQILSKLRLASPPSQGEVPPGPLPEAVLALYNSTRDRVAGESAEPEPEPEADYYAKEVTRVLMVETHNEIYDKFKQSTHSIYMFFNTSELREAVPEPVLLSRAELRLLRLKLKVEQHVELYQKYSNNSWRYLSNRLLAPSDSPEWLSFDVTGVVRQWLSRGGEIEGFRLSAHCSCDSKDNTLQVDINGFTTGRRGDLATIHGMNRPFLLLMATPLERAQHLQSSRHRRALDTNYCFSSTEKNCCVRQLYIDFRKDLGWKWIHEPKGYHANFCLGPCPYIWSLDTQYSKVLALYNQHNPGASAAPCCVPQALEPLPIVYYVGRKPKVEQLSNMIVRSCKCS

| Binder | Kd [1] [nM] | koff [1] [s⁻¹] | kon [1] [M⁻¹ s⁻¹] | Kd [2] [nM] | koff [2] [s⁻¹] | kon [2] [M⁻¹ s⁻¹] | Kd [3] [nM] | Kd [4] [nM] | Kd [5] [nM] | Kd [6] [nM] | further results |
| --- | --- | --- | --- | --- | --- | --- | --- | --- | --- | --- | --- |
| hT0947AE20-SG181 (antibody, human IgG1, kappa, Human IgG1) heavy: not shown light: DIQMTQSPSSLSASVGDRVTITCQASQSISTYEAWYQQKPGQPPKLLIYAASTLESGVPSRFSGSGSGTDFTLTISSLQPEDFATYYCQSYSDGDSVIFGQGTKVEIKRTVAAPSVFIFPPSDEQLKSGTASVVCLLNNFYPREAKVQWKVDNALQSGNSQESVTEQDSKDSTYSLSSTLTLSKADYEKHKVYACEVTHQGLSSPVTKSFNRGEC | 2.95 | 0.00111 | 377000 | 4.39 | 0.00294 | 670000 |  |  |  |  |  |
| hT0947AE07-SG181 (antibody, human IgG1, kappa, Human IgG1; Heavy chain = VH + CH, light chain = VL + CL; also called non-pH dependent anti-human latent TGF-beta 1 antibody) heavy: not shown light: DIQMTQSPSSLSASVGDRVTITCQASQSISTYLAWYQQKPGQPPKLLIYAASTLESGVPSRFSGSGSGTDFTLTISSLQPEDFATYYCQSYSDGDSVGFGQGTKVEIKRTVAAPSVFIFPPSDEQLKSGTASVVCLLNNFYPREAKVQWKVDNALQSGNSQESVTEQDSKDSTYSLSSTLTLSKADYEKHKVYACEVTHQGLSSPVTKSFNRGEC | 1.02 |  |  | 1.04 |  |  |  |  |  |  |  |
| T0947H0053H0156-SG181/T0947L001L0049-SK1 (antibody, human IgG1, kappa, V domains shown, Human IgG1; also called the pH dependent antibody; parent pH-dependent anti human latent TGF-beta 1 antibody) VH: QVQLVESGGGVVQPGRSLRLSCAASGFTFSSEAMNWIRQPPGKGLEWIGYIYTSGTTYRANWARGRFTISRDNSKNTLYLQMNSLRAEDTAVYYCARGTHIYDHYYWVHHLWGQGTLVTVSS VL: DIQMTQSPSSLSASVGDRVTITCQASQSISTYLAWYQQKPGQPPKLLIYAASTLESGVPSRFSGSGSGTDFTLTISSLQPEDFATYYCQSYSDGDSVGFGQGTKVEIKR |  |  |  | 16.6 |  |  |  |  |  |  |  |
| hT0947AE22-SG181 (antibody, human IgG1, kappa, V domains shown, Human IgG1; Heavy chain = VH + CH, light chain = VL + CL) VH: QVQLVESGGGVVQPGRSLRLSCAASGFHFSREAMNWIRQPPGKGLEWIGYIYTSGTTYRANWARGRFTISRDNSKNTLYLQMNSLRAEDTAVYYCARGWHIFGHHYWVMHFWGQGTLVTVSS VL: DIQMTQSPSSLSASVGDRVTITCQASQSISTYLAWYQQKPGQPPKLLIYAASTLESGVPSRFSGSGSGTDFTLTISSLQPEDFATYYCQSYSDGDSVIFGQGTKVEIKR | 3.6 | 0.00124 | 344000 | 5.76 | 0.00376 | 653000 |  |  |  |  |  |
| hT0947AE24-SG181 (antibody, human IgG1, kappa, V domains shown, Human IgG1; Heavy chain = VH + CH, light chain = VL + CL) VH: QVQLVESGGGVVQPGRSLRLSCAASGFHFSSEAMNWIRQPPGKGLEWIGYIYTSGTTYRANWARGRFTISRDNSKNTLYLQMNSLRAEDTAVYYCARGWHIFGHHYWVMHFWGQGTLVTVSS VL: DIQMTQSPSSLSASVGDRVTITCQASQSISTYLAWYQQKPGQPPKLLIYAASTLEWGVPSRFSGSGSGTDFTLTISSLQPEDFATYYCQSYSDGDSVGFGQGTKVEIKR | 2.55 | 0.001 | 393000 | 7.03 | 0.00441 | 627000 |  |  |  |  |  |
| hT0947AE34-SG191 (antibody, human IgG1, V domains shown, Human IgG1, SG191; also called hT0497AE34-SG191) VH: QVQLVESGGGVVQPGRSLRLSCAASGFHFSSEAMNWIRQPPGKGLEWIGYIYTSGTTYRANWARGRFTISRDNSKNTLYLQMNSLRAEDTAVYYCARGWHIFDHHYWVMHAWGQGTLVTVSS VL: DIQMTQSPSSLSASVGDRVTITCQASQSISTYLAWYQQKPGQPPKLLIYAASTLEYGVPSRFSGSGSGTDFTLTISSLQPEDFATYYCQSYSDGDSVIFGQGTKVEIKR |  |  |  |  |  |  | 309 | 346 | 2.29 | 3.67 |  |
| hT0947AE20-SG191 (antibody, human IgG1, Human IgG1, SG191; also called hT0497AE20-SG191) heavy: QVQLVESGGGVVQPGRSLRLSCAASGFLFSREAMNWIRQPPGKGLEWIGYIYTSGTTYRANWARGRFTISRDNSKNTLYLQMNSLRAEDTAVYYCARGWHIFGHQYWVMHFWGQGTLVTVSSASTKGPSVFPLAPSSKSTSGGTAALGCLVKDYFPEPVTVSWNSGALTSGVHTFPAVLQSSGLYSLSSVVTVPSSSLGTQTYICNVNHKPSNTKVDKRVEPKSCDKTHTCPPCPAPELRRGPSVFLFPPKPKDTLMISRTPEVTCVVVDVSHEDPEVKFNWYVDGVEVHNAKTKPREEQYNSTYRVVSVLTVLHQDWLNGKEYKCKVSNKALPAPIEKTISKAKGQPREPQVYTLPPSREEMTKNQVSLTCLVKGFYPSDIAVEWESNGQPENNYKTTPPVLDSDGSFFLYSKLTVDKSRWQQGNVFSCSVLHEALHAHYTRKELSLSP light: DIQMTQSPSSLSASVGDRVTITCQASQSISTYEAWYQQKPGQPPKLLIYAASTLESGVPSRFSGSGSGTDFTLTISSLQPEDFATYYCQSYSDGDSVIFGQGTKVEIKRTVAAPSVFIFPPSDEQLKSGTASVVCLLNNFYPREAKVQWKVDNALQSGNSQESVTEQDSKDSTYSLSSTLTLSKADYEKHKVYACEVTHQGLSSPVTKSFNRGEC |  |  |  |  |  |  | 395 | 669 | 3.84 | 5.12 | koff [3]: 0.0538 s⁻¹; kon [3]: 136000 M⁻¹ s⁻¹; Kd [7]: 427 nM; koff [7]: 0.0553 s⁻¹; kon [7]: 129000 M⁻¹ s⁻¹; koff [4]: 0.107 s⁻¹; kon [4]: 160000 M⁻¹ s⁻¹; koff [5]: 0.00104 s⁻¹; kon [5]: 271000 M⁻¹ s⁻¹; Kd [8]: 3.78 nM; koff [8]: 0.001 s⁻¹; kon [8]: 266000 M⁻¹ s⁻¹; koff [6]: 0.00242 s⁻¹; kon [6]: 472000 M⁻¹ s⁻¹; KD ratio pH5.8/pH7.4 [9]: 103; koff ratio pH5.8/pH7.4 [9]: 51.7; KD ratio pH5.8/pH7.4 [10]: 113; koff ratio pH5.8/pH7.4 [10]: 55.3; KD ratio pH5.8/pH7.4 [11]: 131; koff ratio pH5.8/pH7.4 [11]: 44.2 |
| hT0947AE27-SG191 (antibody, human IgG1, V domains shown, Human IgG1, SG191; also called hT0497AE27-SG191) VH: QVQLVESGGGVVQPGRSLRLSCAASGFHFSNEAMNWIRQPPGKGLEWIGYIYTTGTTYRANWARGRFTISRDNSKNTLYLQMNSLRAEDTAVYYCARGWHIFGHHYWVMHFWGQGTLVTVSS VL: DIQMTQSPSSLSASVGDRVTITCQASQRISTYVAWYQQKPGQPPKLLIYAASTLESGVPSRFSGSGSGTDFTLTISSLQPEDFATYYCQSYSDGDSVIFGQGTKVEIKR |  |  |  |  |  |  | 482 | 803 | 3.93 | 5.43 |  |
| hT0947AE37-SG191 (antibody, human IgG1, V domains shown, Human IgG1, SG191; also called hT0497AE37-SG191) VH: QVQLVESGGGVVQPGRSLRLSCAASGFHFSSEAMNWIRQPPGKGLEWIGYIYVSGTTYRADWARGRFTISRDNSKNTLYLQMNSLRAEDTAVYYCARGWHIFGHHYWVMHAWGQGTLVTVSS VL: DIQMTQSPSSLSASVGDRVTITCQASESISTYLAWYQQKPGQPPKLLIYAASTLESGVPSRFSGSGSGTDFTLTISSLQPEDFATYYCQSYSDGDSVIFGQGTKVEIKR |  |  |  |  |  |  | 222 | 1570 | 1.32 | 3.61 |  |
| hT0947AE25-SG181 (antibody, human IgG1, kappa, V domains shown, Human IgG1; Heavy chain = VH + CH, light chain = VL + CL) VH: QVQLVESGGGVVQPGRSLRLSCAASGFHFSNEAMNWIRQPPGKGLEWIGYIYTSGTTYRSNWARGRFTISRDNSKNTLYLQMNSLRAEDTAVYYCARGWHIFGHQYWVMHFWGQGTLVTVSS VL: DIQMTQSPSSLSASVGDRVTITCQASQSISTYEAWYQQKPGQPPKLLIYAASTLESGVPSRFSGSGSGTDFTLTISSLQPEDFATYYCQSYSDGDSVGFGQGTKVEIKR | 3.88 | 0.00152 | 391000 | 4.48 | 0.0353 | 7.89e+06 |  |  |  |  |  |
| hT0947AE26-SG181 (antibody, human IgG1, kappa, V domains shown, Human IgG1; Heavy chain = VH + CH, light chain = VL + CL) VH: QVQLVESGGGVVQPGRSLRLSCAASGFHFSNEAMNWIRQPPGKGLEWIGYIYTSGTTYRSNWARGRFTISRDNSKNTLYLQMNSLRAEDTAVYYCARGWHIFGHQYWVMHFWGQGTLVTVSS VL: DIQMTQSPSSLSASVGDRVTITCQASQSISTYEAWYQQKPGQPPKLLIYAASTLESGVPSRFSGSGSGTDFTLTISSLQPEDFATYYCQSYSDGDSVKFGQGTKVEIKR | 3.33 | 0.0012 | 361000 | 5.34 | 0.00864 | 1.62e+06 |  |  |  |  |  |
| hT0947AE23-SG181 (antibody, human IgG1, kappa, V domains shown, Human IgG1; Heavy chain = VH + CH, light chain = VL + CL) VH: QVQLVESGGGVVQPGRSLRLSCAASGFHFSREAMNWIRQPPGKGLEWIGYIYTSGTTYRANWARGRFTISRDNSKNTLYLQMNSLRAEDTAVYYCARGTHLFGHHYWVMHSWGQGTLVTVSS VL: DIQMTQSPSSLSASVGDRVTITCQASQSISTYLAWYQQKPGQPPKLLIYAASTLEYGVPSRFSGSGSGTDFTLTISSLQPEDFATYYCQSYSDGDSVVFGQGTKVEIKR | 3.25 | 0.00108 | 333000 | 4.19 | 0.00187 | 445000 |  |  |  |  |  |
